pKd: −log10 of the molar value.
What was measured:
[1] = target: RNA polymerase (Escherichia coli) (UniProt P0A7Z4); conditions: cited from earlier work
[2] = target: DNA topoisomerase I (TopoI) of Streptococcus pneumoniae (S. pneumoniae); experiment: SPR; TopoI immobilised on a new CM5 chip; RNAP holoenzyme 240 nM incubated with 1 x MIC seconeolitsine (SCN)
[3] = target: DNA topoisomerase I (TopoI) of Streptococcus pneumoniae (S. pneumoniae); experiment: SPR; TopoI immobilised on a new CM5 chip; RNAP holoenzyme 240 nM injected alone (no drug)
[4] = target: DNA topoisomerase I (TopoI) of Streptococcus pneumoniae (S. pneumoniae); experiment: SPR; Biacore X100; about 3000 RU of TopoI immobilised on a CM5 chip by amine coupling; RNAP holoenzyme 7.5-240 nM flowed at 50 ul/min; 25 C; 20 mM Tris HCl pH 7.5, 100 mM NaCl, 10 mM MgCl2, 0.1 mM EDTA, 1 mM DTT, 0.005% Tween-20, 5% glycerol; regeneration with 1 M NaCl; kinetic fit; two independent assays
[5] = target: DNA topoisomerase I (TopoI) of Streptococcus pneumoniae (S. pneumoniae); experiment: SPR; TopoI immobilised on a new CM5 chip; RNAP holoenzyme 240 nM incubated with 1 x MIC rifampicin (Rif)

DNA topoisomerase I, sequence (P06612 whole entry): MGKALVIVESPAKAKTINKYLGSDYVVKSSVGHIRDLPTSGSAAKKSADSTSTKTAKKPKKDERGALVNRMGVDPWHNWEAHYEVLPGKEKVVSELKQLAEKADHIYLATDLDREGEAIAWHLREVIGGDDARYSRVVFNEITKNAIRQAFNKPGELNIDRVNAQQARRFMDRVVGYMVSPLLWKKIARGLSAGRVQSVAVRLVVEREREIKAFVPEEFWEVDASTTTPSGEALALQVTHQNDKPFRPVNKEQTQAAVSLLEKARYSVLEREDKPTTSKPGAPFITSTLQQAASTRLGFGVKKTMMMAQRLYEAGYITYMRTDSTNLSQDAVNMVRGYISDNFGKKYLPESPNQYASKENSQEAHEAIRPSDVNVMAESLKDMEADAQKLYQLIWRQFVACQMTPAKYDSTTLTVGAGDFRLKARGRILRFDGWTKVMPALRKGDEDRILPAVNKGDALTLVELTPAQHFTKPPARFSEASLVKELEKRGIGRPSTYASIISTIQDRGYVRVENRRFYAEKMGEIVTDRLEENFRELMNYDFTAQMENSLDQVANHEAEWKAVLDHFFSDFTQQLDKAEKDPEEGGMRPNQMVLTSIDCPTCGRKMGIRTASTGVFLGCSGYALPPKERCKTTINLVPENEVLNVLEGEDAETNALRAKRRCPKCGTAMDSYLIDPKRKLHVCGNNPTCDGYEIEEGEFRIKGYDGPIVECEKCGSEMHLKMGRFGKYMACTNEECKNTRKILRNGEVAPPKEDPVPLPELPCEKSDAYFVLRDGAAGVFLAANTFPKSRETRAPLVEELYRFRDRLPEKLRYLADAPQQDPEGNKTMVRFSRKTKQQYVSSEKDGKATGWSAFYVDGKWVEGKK

SPR response with SCN [2] | SPR response (no drug) [3] | pKd [4] | SPR response with Rif [5] | Substance | pKd [1]
– | – | – | – | DNA topoisomerase I (from UniProt P06612) | 7.03
40.9 RU | 173 RU | 7.57 | 122 RU | RNA polymerase (RNAP) holoenzyme of Streptococcus pneumoniae (from UniProt P66708 1-311; A0A0H2ZQA1 1-369) (complex) | –

— publication PMC8115823
